This test deals with spliceosomal snRNP core Sm proteins, endogenous in cell extracts. The test is described as follows: co-IP with Y12 from transfected 293T cells, Western blot. Background: In western blotting, separated proteins are transferred to a membrane and probed.

The substance “myc-tagged SMNΔC26 (from UniProt Q16637 1-268)” gave an amount co-immunoprecipitated relative to wild-type SMN (fraction of wild type) of 0.33.

The record behind these values is patent publication US6646113.
